Test results reported in patent US20200407441A1 (I MAB BIOPHARMA US, published 2020).
Residue numbers refer to the chain shown, from its start.

Assays:
[1] = molecular target: CD47 on human red blood cells (human) (UniProt Q08722); test: flow cytometry on human RBCs, Donor 1
[2] = molecular target: CD47 on human red blood cells (human) (UniProt Q08722); test: flow cytometry on human RBCs, Donor 2
human CD47-ECD = molecular target: T1, human CD47-ECD (human, UniProt Q08722 19-139, limits assumed, N-terminal pyroglutamate (seen in the crystal structure)); test: ELISA on recombinant CD47-ECD; recombinant CD47-ECD
T1 construct: extracellular domain; also called recombinant CD47-ECD; CD47 ECD protein

human CD47 on Raji cells [3] = molecular target: T2, human CD47 on Raji cells (human, UniProt Q08722 19-323); test: flow cytometry on Raji cells; CD47-bearing Raji cells
T2 construct: whole, on cells; also called CD47+ Raji cells; CD47-bearing Raji cells

CD47 (form not stated) [4] = molecular target: T3, CD47 (form not stated) (UniProt Q08722 19-139, limits assumed); test: CD47-SIRPα blocking assay; format not stated; blocking of CD47 binding to SIRPα
[5] = molecular target: T4, recombinant human CD47-Fc fusion protein (Acrobiosystems) (human, UniProt Q08722 19-139); test: blocking ELISA, CD47-Fc coated, blocked ligand SIRPa-His at 1 ug/mL, anti-His HRP
T4 construct: extracellular domain; also called recombinant CD47-Fc fusion protein; not shown: Fc

CD47 (form not stated) [6] = molecular target: T3, CD47 (form not stated); test: BiaCore (SPR); format not stated
CD47 (form not stated) [7] = molecular target: T3, CD47 (form not stated); test: Biacore
[8] = molecular target: T4, recombinant human CD47-Fc fusion …; test: competition ELISA: blocks SIRPα-His binding to coated CD47-Fc
Procedure: Recombinant CD47-Fc fusion protein (Acrobiosystems) was coated at 1 ug/ml in PBS onto microtiter plates for 16 hours at 4° C. […] Plates were subsequently washed three times and incubated with an HRP-conjugated anti-His secondary antibody for 1 h at RT.

human CD47 on Raji cells [9] = molecular target: T2, human CD47 on Raji cells; test: flow cytometry on Raji cells, APC anti-human Fc
Procedure: (§1) Then, the cells were washed with PBS three times, followed by incubation with APC-labeled anti-human Fc specific antibody (Invitrogen) at 4° C. for 30 minutes. Binding was measured using a FACSCanto (Becton-Dickinson).

[10] = molecular target: T5, biotinylated human CD47-ECD protein (Acrobiosystems) (human, UniProt Q08722 19-139, biotinylated (site not stated)); test: ELISA, biotinylated CD47 coated at 1 ug/mL, anti-human Fc HRP
T5 construct: extracellular domain; Bought reagent; also called biotinylated CD47 protein; monomeric CD47-ECD

[11] = molecular target: CD47 on human platelets (human) (UniProt Q08722); test: flow cytometry on human whole blood, gated on CD61 positive platelets, antibody at 10 ug/mL
[12] = molecular target: T6, Tag1-CD47 (Cisbio HTRF kit) (UniProt Q08722 19-139); test: HTRF competition: blocks Tag1-CD47 / Tag2-SIRPα interaction (Cisbio)
T6 construct: Kit reagent
Procedure: (§2) The mixture was incubated at 25° C. for 15 minutes, and further incubated at 25° C. for 1 hour after conjugates pre-mixture was added. Then the plate sealer was removed and fluorescence data was read on a PerkinElmer Envision plate reader.

[13] = molecular target: T7, recombinant human CD47/mouse Fc fusion protein (Acrobiosystems) (human, UniProt Q08722 19-139); test: ELISA, CD47/mouse Fc coated at 1 ug/ml, anti-human Fc HRP
T7 construct: extracellular domain; Bought reagent; also called dimeric CD47-ECD; not shown: Mouse Fc

human CD47 on Raji cells [14] = molecular target: T2, human CD47 on Raji cells; test: flow cytometry on Raji cells
Procedure: as §1

[15] = molecular target: T7, recombinant human CD47/mouse Fc fusion …; test: ELISA on recombinant CD47-ECD (FIG. 2b, dimeric CD47-ECD)
Procedure: CD47/mouse Fc fusion protein (Acrobiosystems) was coated at 1 ug/ml in PBS onto microtiter plates for 2 hours at RT. After coating of antigen the wells were blocked with PBS/0.05% Tween (PBST) with 1% BSA for 1 hour at RT. After washing of the wells with PBST, different concentrations of anti-CD47 antibodies were added to the well and incubated for 1 at RT. For detection of the binding antibodies, the HRP conjugated secondary antibodies against human Fc (Jackson Immuno Research) were added followed by the addition of fluorogenic substrates (Roche). Between all incubation steps, the wells of the plate were washed with PBST three times. Fluorescence was measured in a TECAN Spectrafluor plate reader.

CD47 (form not stated) [16] = molecular target: T3, CD47 (form not stated); test: Biacore (SPR); format not stated
human CD47 on Raji cells [17] = molecular target: T2, human CD47 on Raji cells; test: flow cytometry on Raji cells, MFI
[18] = molecular target: T6, Tag1-CD47 (Cisbio HTRF kit); test: HTRF CD47-SIRPa binding assay (ratio 665 nm / 615 nm), blocked ligand Tag2-SIRPa
Procedure: as §2

IgG (antibody)
percent of cells in the binding gate [1]: 0.079%
percent of cells in the binding gate [2]: 0.018%

B1: CD47 antibody 34C5 (antibody, V domains shown)
VH: QVQLVQSGAEVKKPGSSVKVSCKASGYTFSSYYMHWVRQAPGQGLEWMGEINPNNARINFNEKFKTRVTLTVDKSTSTAYMELSSLRSEDTAVYYCTRGYYRYGAWFGYWGQGTLVTVSS
VL: DIQMTQSPSSLSASVGDRVTITCRASQDISDYLNWYQQKPGKAPKLLIYYISRLHSGVPSRFSGSGSGTDYTLTISSLQPEDFATYYCQQGHTLPWTFGGGTKVEIK
EC50 (human CD47-ECD): 0.27 nM
EC50 (human CD47 on Raji cells [3]): 0.83 nM
EC50 (CD47 (form not stated) [4]): 0.3 nM

B2: CD47 antibody 1F8 (antibody, human IgG1, V domains shown)
VH: KVQLVESGGGLVKPGGSLRLSCAASGFTFSNAWMNWVRQAPGKGLEWVGRIKRKTDGETTDYAAPVKGRFSISRDDSKNTLYLQMNSLKTEDTAVYYCAGSNRAFDIWGQGTMVTVSA
VL: DIVMTQSPDSLAVSLGERATINCKSSQSVLYSSNNRNYLAWYQQKPGQPPKLLINQASTRASGVPDRFSGSGSGTEFTLIISSLHAEDVAIYYCQQYYTPPLAFGGGTKLEIK
IC50 (read off the curve) [5]: ~0.3 µg/mL
Kd (CD47 (form not stated) [6]): 2.8 nM
koff (CD47 (form not stated) [6]): 0.00104 s⁻¹
kon (CD47 (form not stated) [7]): 375000 M⁻¹ s⁻¹
percent of cells in the binding gate [1]: 0.065%
IC50 [8]: 0.78 nM
EC50 (read off the curve) (human CD47 on Raji cells [9]): ~0.2 µg/mL
EC50 (read off the curve) [10]: ~0.009 µg/mL
percent of CD61+ platelets in the binding gate [11]: 0.77%
IC50 [12]: 1.6 nM
EC50 (read off the curve) [13]: ~0.006 µg/mL
EC50 (human CD47 on Raji cells [14]): 2.95 nM
percent of cells in the binding gate [2]: 0.076%
EC50 [15]: 0.038 nM

B3: CD47 antibody 13H3 (antibody, V domains shown)
VH: B2 VH with F27L, S30E, N31R
VL: B2 VL with S32A, S33G, H85Q
Kd (CD47 (form not stated) [7]): 0.46 nM
koff (CD47 (form not stated) [7]): 0.000247 s⁻¹
kon (CD47 (form not stated) [7]): 533000 M⁻¹ s⁻¹
Kd (CD47 (form not stated) [16]): 7.81 nM
koff (CD47 (form not stated) [16]): 0.00282 s⁻¹
kon (CD47 (form not stated) [16]): 361000 M⁻¹ s⁻¹
IC50 [8]: 0.2 nM
EC50 (human CD47 on Raji cells [14]): 1.06 nM
EC50 [15]: 0.045 nM
EC50 (human CD47 on Raji cells [17]): 1.07 nM
IC50 [18]: 0.36 nM
